Experimental data taken from patent US11007356B2, “Ingestible device for delivery of therapeutic agent to the gastrointestinal tract” (Progenity, Inc., priority 2018, dated 2021).
Where “and” joins values, the source holds several entries; their conditions need not be identical. Equal entries are not always repeated. Where two headings read alike, the source gives them in different places. Marks after values point to notes of the source that are not given here.

Key:
[1] = cited from earlier work
[2] = Dosing regimen model: required bioavailability for ingestible device (Tables 16, 17); details: for Eff Dose: approved dose x bioavailability of the approved route (Table 16); for Eff. Dose: baseline dose x bioavailability, SC (Table 17), assumed weight 70 kg
[3] = pig, in vivo
[4] = tested on: blood glucose; assay: Euglycemic clamp procedure (PD) in swine (Example 3); type: in vivo, Yorkshire female swine
Method: (§1) Blood samples were kept on wet ice until centrifugation and separation of plasma. […] Glucose was monitored every five (5) minutes during the study by portable glucose analyzer (StatStrip (SS) hospital glucose monitoring system (Nova Biomedical, Waltham, Mass.)). At each time point, approximate 0.1 mL of blood was drawn and immediately placed on a glucose monitoring test strip, and the whole blood glucose concentration was measured by the SS in triplicate.
A euglycemic clamp procedure (ECP) was employed to compare pharmacokinetics and pharmacodynamics of regular human Insulin (NOVOLIN® R) delivered subcutaneously (SC) in the neck versus intra-jejunally (IJ) by the jet delivery device in the small intestine. ECP was used to quantify the amount of glucose required to maintain normoglycemia after exogenous bolus of insulin. […] The animals were anesthetized for the entire ECP.

[5] = Insulin PK after SC or intra-jejunal (IJ) jet delivery in swine (Example 3); type: in vivo, Yorkshire female swine; details: for Cmax of blood insulin, Average / Tmax of blood insulin, Average: average of animals; for Cmax of blood insulin / Tmax of blood insulin: individual animals
Method: A total of 18 Yorkshire female swine in good health and weighing 60-70 kg each were included in this study. Swine were divided into two groups with 9 animals per group. […] A sham surgical laparotomy was performed. […] The jet delivery device was configured with the single nozzle in an axial orientation.
Swine were divided into two groups with 9 animals per group. […] In all 18 animals, a laparotomy procedure was performed to expose the abdominal cavity. Animals remained under anesthesia during the entire procedure for the PK/PD study.
For the laparotomy in group 02, a small segment of the jejunal mucosa and serosa was exposed by midline laparotomy and the jet delivery device was inserted through antimesenteric incision.
as §1
The animals were anesthetized for the entire ECP.

[6] = IJ administration via jet delivery device, ~40 U
[7] = SC administration group compared with IJ administration group

For alirocumab, the “Bio Avail (Approved Dosing Info)” value ([1]; in vivo, sc) is given as 85% and the “Eff Dose” value [2] is given as 63.8 mg.
In the case of ustekinumab, the “Bio Avail (Approved Dosing Info)” value ([1]; in vivo, sc) is given as 78% and the “Eff Dose” value [2] is given as 35.1 mg.
For natalizumab, the “Bio Avail (Approved Dosing Info)” value ([1]; in vivo, iv) is listed as 100% and the “Eff Dose” value [2] is listed as 300 mg.
For somatropin, the “Bioavail. (Baseline dose)” value ([1]; in vivo, sc) is given as 80.5% and the “Eff. Dose” value [2] is given as 0.8 mg.
For secukinumab, the “Bio Avail (Approved Dosing Info)” value ([1]; in vivo, sc) is given as 73% and the “Eff Dose” value [2] is given as 109.5 mg.
For certolizumab pegol, the “Bio Avail (Approved Dosing Info)” value ([1]; in vivo, sc) is given as 80% and the “Eff Dose” value [2] is given as 160 mg.
In the case of denosumab, the “Bio Avail (Approved Dosing Info)” value ([1]; in vivo, sc) is listed as 61% and the “Eff Dose” value [2] is listed as 36.6 mg.
In the case of dulaglutide, the “Bio Avail (Approved Dosing Info)” value ([1]; in vivo, sc) is listed as 65%, the “Eff Dose” value [2] is listed as 0.49 mg and the “Bioavailability relative to IV” value [3] is listed as 26.51 ± 6.55% ^a. For the same compound, the “Bioavailability relative to SC” value [3] was 49.11 ± 0.08% ^a, the “(AUC)T0-T240 h ± SEM” value ([3]; 1.2 mg) was 4355.86 ± 1094.57^a ng.hr/mL and the “AUCID (± SEM)” value ([3]; 1.2 mg) was 3890.00 ± 94.73 ng·h/mL. For the same compound, the Tmax ([3]; 1.2 mg) was 8 h, the “(AUC)T0-T240 h ± SEM” value ([3]; iv, 1.2 mg) was 16429.33 ± 600.93 ng·h/mL and the Tmax ([3]; iv, 1.2 mg) was 1 h. For the same compound, the “(AUC)T0-T240 h ± SEM” value ([3]; sc, 1.2 mg) was 8869 ± 887.33 ng·h/mL and the Tmax ([3]; sc, 1.2 mg) was 6 h.
For etanercept, the “Bio Avail (Approved Dosing Info)” value ([1]; in vivo, sc) is listed as 58% and the “Eff Dose” value [2] is listed as 29.0 mg.
For golimumab, the “Bio Avail (Approved Dosing Info)” value ([1]; in vivo, sc) is listed as 51% and the “Eff Dose” value [2] is listed as 25.5 mg.
For vedolizumab, the “Bio Avail (Approved Dosing Info)” value ([1]; in vivo, iv) is given as 100% and the “Eff Dose” value [2] is given as 300 mg.
In the case of glucagon, the “Bioavail. (Baseline dose)” value ([1]; in vivo, sc) is given as 100.0% and the “Eff. Dose” value [2] is given as 2.0 mg.
In the case of `CC[C@H](C)[C@H](NC(=O)[C@H](CCC(=O)O)NC(=O)[C@H](CO)NC(=O)[C@@H](NC(=O)[C@@H](N)CO)C(C)C)C(=O)N[C@@H](CCC(N)=O)C(=O)N[C@@H](CC(C)C)C(=O)N[C@@H](CCSC)C(=O)N[C@@H](Cc1cnc[nH]1)C(=O)N[C@@H](CC(N)=O)C(=O)N[C@@H](CC(C)C)C(=O)NCC(=O)N[C@@H](CCCCN)C(=O)N[C@@H](Cc1cnc[nH]1)C(=O)N[C@@H](CC(C)C)C(=O)N[C@@H](CC(N)=O)C(=O)N[C@@H](CO)C(=O)N[C@@H](CCSC)C(=O)N[C@@H](CCC(=O)O)C(=O)N[C@@H](CCCN=C(N)N)C(=O)N[C@H](C(=O)N[C@@H](CCC(=O)O)C(=O)N[C@@H](Cc1c[nH]c2ccccc12)C(=O)N[C@@H](CC(C)C)C(=O)N[C@@H](CCCN=C(N)N)C(=O)N[C@@H](CCCCN)C(=O)N[C@@H](CCCCN)C(=O)N[C@@H](CC(C)C)C(=O)N[C@@H](CCC(N)=O)C(=O)N[C@@H](CC(=O)O)C(=O)N[C@H](C(=O)N[C@@H](Cc1cnc[nH]1)C(=O)N[C@@H](CC(N)=O)C(=O)N[C@@H](Cc1ccccc1)C(=O)O)C(C)C)C(C)C` [teriparatide], the “Bio Avail (Approved Dosing Info)” value ([1]; SC administration) is given as 95% and the “Eff Dose” value [2] is given as 0.02 mg.
In the case of `CC[C@H](C)[C@H](NC(=O)[C@H](Cc1ccccc1)NC(=O)[C@H](CCC(=O)O)NC(=O)[C@H](CCCCNC(=O)COCCOCCNC(=O)COCCOCCNC(=O)CC[C@H](NC(=O)CCCCCCCCCCCCCCCCC(=O)O)C(=O)O)NC(=O)[C@H](C)NC(=O)[C@H](C)NC(=O)[C@H](CCC(N)=O)NC(=O)CNC(=O)[C@H](CCC(=O)O)NC(=O)[C@H](CC(C)C)NC(=O)[C@H](Cc1ccc(O)cc1)NC(=O)[C@H](CO)NC(=O)[C@H](CO)NC(=O)[C@@H](NC(=O)[C@H](CC(=O)O)NC(=O)[C@H](CO)NC(=O)[C@@H](NC(=O)[C@H](Cc1ccccc1)NC(=O)[C@@H](NC(=O)CNC(=O)[C@H](CCC(=O)O)NC(=O)C(C)(C)NC(=O)[C@@H](N)Cc1cnc[nH]1)[C@@H](C)O)[C@@H](C)O)C(C)C)C(=O)N[C@@H](C)C(=O)N[C@@H](Cc1c[nH]c2ccccc12)C(=O)N[C@@H](CC(C)C)C(=O)N[C@H](C(=O)N[C@@H](CCCNC(=N)N)C(=O)NCC(=O)N[C@@H](CCCNC(=N)N)C(=O)NCC(=O)O)C(C)C` [Semaglutide, semaglutide], the “Bio Avail (Approved Dosing Info)” value ([1]; in vivo, sc) is listed as 89%.
In the case of tocilizumab, the “Bio Avail (Approved Dosing Info)” value ([1]; in vivo, sc) is given as 80% and the “Eff Dose” value [2] is given as 129.6 mg.
With “Novolin® R: regular human insulin (NOVOLIN® R)” the “mean dextrose infusion rate, IJ vs SC” value ([4]; first 70 minutes after administration) was “higher in the IJ administration group”, the “mean dextrose infusion rate, IJ vs SC” value ([4]; from 75 minutes to 420 minutes post-administration) was “higher in the SC administration group” and the “Cmax of blood insulin, Average” value [5, 6] was 77.40 uIU/mL. For the same compound, the “Tmax of blood insulin, Average” value [5, 6] was 0.9272 h, the “Cmax of blood insulin” value [5, 6] was 40.93 uIU/mL and 96.77 uIU/mL and 5.03 uIU/mL and 7.96 uIU/mL and 48.77 uIU/mL and 85.38 uIU/mL and 207.96 uIU/mL and 126.39 uIU/mL and the “Tmax of blood insulin” value [5, 6] was 20 min and 50 min and 90 min (2×) and 40 min (3×). For the same compound, the “AUC of blood insulin, SC vs IJ” value [5, 7] was “higher than that of the IJ administration group”, the “maximum plasma concentration Cmax, SC vs IJ” value [5, 7] was “higher than that of the IJ administration group” and the “Cmax of blood insulin, Average” value ([5]; SC administration) was 202.94 uIU/mL. For the same compound, the “Tmax of blood insulin, Average” value ([5]; SC administration) was 1.452 h, the “Cmax of blood insulin” value ([5]; SC administration) was 451.00 uIU/mL and 60.74 uIU/mL and 354.00 uIU/mL and 356.60 uIU/mL and 65.71 uIU/mL and 59.18 uIU/mL and 73.34 uIU/mL and the “Tmax of blood insulin” value ([5]; SC administration) was 50 min (2×) and 180 min and 105 min and 30 min and 120 min. The “time to maximum plasma concentration (Tmax)” value ([5]; jejunum administration group (jet delivery device)) was 0.9272 h.
